# B1: MIP-1α: β chemokine (protein, UniProt P10147 24-92, looked up)
# C-C motif chemokine 3: SLAADTPTACCFSYTSRQIPQNFIADYFETSSQCSKPGVIFLTKRSRQVCADPSEEWVQKYVSDLELSA
# B2: Rantes: β chemokine, natural ligand of CCR5 (protein, UniProt P13501 24-91, looked up)
# C-C motif chemokine 5: SPYSSDTTPCCFAYIARPLPRAHIKEYFYTSGKCSNPAVVFVTRKNRQVCANPEKKWVREYINSLEMS
# B3: MIP-1β: β chemokine (protein, UniProt P13236 24-92, looked up)
# C-C motif chemokine 4: APMGSDPPTACCFSYTARKLPRNFVVDYYETSSLCSQPAVVFQTKRSKQVCADPSESWVQEYVYDLELN
# Test system: HIV-1 Bal
# Assay: Infection of human monocyte-derived macrophages by HIV-1 (p24)
# Assay type: cell-based
# Conditions: HIV-1 BaL (TASP also Ada); p24 in supernatant
# Description: Macrophages are infected with BaL or Ada HIV-1 viruses, in the presence of 2 μM, 1 μM or 0.1 μM of 5[Kψ (CH2N)PR]-TASP. Cells are preincubated during 30 min at 4° C. in the presence of 5[Kψ (CH2N)PR]-TASP before adding the virus. Every 3 days interval, the whole culture supernatant is collected and is replaced by RPMI 1640 culture medium supplemented with 20% fetal calf serum (FCS), 1% antibiotics, 1% glutamine, in addition to 5[Kψ (CH2N)PR]-TASP that is kept present in the culture medium until day 14 after in vitro infection. Virus production is quantitated by titration of p24 protein in the culture supernatant at different times (days) after in vitro infection. Each value represented in the graphs represents the mean of two test samples.
# Macrophages are infected by the BaL VIH-1 virus in the presence of 100 μg/ml of anti-P95, anti-P40 and anti-P30 antibody. Cells are preincubated during 30 min at 4° C. in the presence of each kind of antibody before adding the virus. The antibodies are kept present in the culture medium during the whole infection period of time. The experimental conditions are identical to those detailed in 4 +L4. The results are representative of two independent experiments.
# Cells are preincubated during 30 min at 4° C. in the presence of the different molecules either alone or in association before adding the virus. Every three days period, the whole culture supernatant is collected and is replaced by RPMI 1640 culture medium supplemented with 20% fetal calf serum (FCS), 1% antibiotics, 1% glutamine, in addition to each tested molecule. Virus production is quantitated by titration of p24 protein in the culture supernatant at different times (days) after in vitro infection. Every value reprented in the graphs represents the mean of two test samples.
row,Molecule,effect on infection of human macrophages by HIV-1
1,B1,weaker inhibitory effect
2,B2,inhibit
3,B3,inhibit

# From patent US20020076693A1, “Novel cell surface receptor for HIV retroviruses, therapeutic and diagnostic uses” (priority 1997, published 2002)
